Data: the RNAGym collection of RNA variant scans (doi:10.1073/pnas.2313332121)

B1: TPR t1 (parent)
chain: GACCAAUCUGCCCUCAGAGCUCGAGAACAUCUUCGGAUGCAGAGGAGGCAGGCUUCGGUGGCGCGAUAGCGCCAACGUCCUCAACCUCCAAUGCAUCCCACCACAUGAUGAUGCCUGAAGAGCCUUGGUUUUUUG

Variants of: B1
Experiment: polymerase ribozyme fitness, log enrichment relative to wild type (log ratio); higher = more active; in vitro selection for triplet polymerase activity
Method in brief: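 Input and output libraries were sequenced on Illumina after a single in vitro selection round, run in triplicate on PCR-built, transcribed mutant libraries of each subunit of a heterodimeric triplet polymerase ribozyme. Selection annealed libraries to a biotinylated primer, the partner subunit and triplets, incubated them frozen at −7 °C, then gel-excised extended constructs for streptavidin-bead capture and RT-PCR. Genotypes with ≥10 input reads and ≥1 read per output were kept. Fitness is the logarithm, taken in base 2, of genotype enrichment divided by wild-type enrichment, using inverse-variance-weighted replicate averages.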

In order of falling “polymerase ribozyme fitness (log ratio)” value:
1. C70U C79U C124U  1
2. G61A A111G  0.971
3. U7G U54C U55G  0.467
4. G60C U78A  -0.111
5. C11G C15A G61U U125G  -0.123
6. C8U U21A G69C U106C U112A  -0.365
7. G60A C73A  -0.416
8. A6U C12U U81C  -0.545
9. G39U G42C C94U U106A U112A  -0.723
10. A66U U78C  -0.769
11. A46G C56A U133G  -0.786
12. G93C G122A  -0.79
13. G47U G48A G63C A119G U130C  -1
14. U54G A95G U130A  -1.11
15. C56G G110U  -1.13
16. G77A C82G  -1.13
17. A5U C94U  -1.16
18. G10U C12U C22A C56U U112C  -1.17
19. G48U U78C  -1.27
20. U21A G45U  -1.28
21. A37U C73G U130G  -1.38
22. A26U G69U  -1.44
23. A6U A84U G110U  -1.45
24. C15U U130A  -1.54
25. G19A A118G C124G  -1.63
26. A37U C56G C114A  -1.64
27. C34A C102U  -1.64
28. C12G C98U U133G  -1.82
29. A84C U116G  -1.83
30. C8A U14A C101G  -1.85
31. G110A G135U  -1.92
32. U59A G63U  -1.93
33. A50U G71U  -1.94
34. A2C C40U  -2.06
35. C4U U129A  -2.07
36. C20A C73A  -2.14
37. C49U G71C G117U G120A C124A  -2.34
38. C15U G51A C72G A121C  -2.34
39. C12A A29U C86A  -2.52
40. U54C C80A U125A  -2.52
41. G69C A75G  -2.54
42. C62U A111U  -2.55
43. U96G G113C  -2.59
44. C40G G52U  -2.76
45. A5U G10U G45C G51A A118U G120A  -2.81
46. A16C C49A A74C C88A U116C  -3.06
47. C40G C101G C104U  -3.21
48. A43G C73G A75C U112A  -3.33
49. C56A G60A U116G G135A  -3.36
50. U14G A90C  -3.4
51. C28U A37C C76G  -3.54
52. A43G C114G  -3.66
53. G45C G93U  -3.67
54. C11A C40A C49G C94U  -3.79
55. A29C G69U C99U  -3.95
56. A43G A50G G60U A95G U132C  -3.96
57. A2U U21A C49U  -4.09
58. G61C C97A  -4.3
59. C12A A26U G61A U131G  -4.35
60. A46U C53A A111U  -4.45
61. C13U A18G A46C U96C A100C C123G  -4.57
62. U33A A46U  -4.71
63. C4U G58C C97G  -4.76
64. C4G A90U A100C C124U U132C  -4.88
65. C8U A27C G63C C79A A119G  -4.92
66. C15G C79G  -4.93
67. G10A A74G C97U C101U A105G U130G  -5.19
68. A2C C12G G42U C49A C73A C82U A111C  -5.3
69. C4U U14A G69A C101U  -5.32
70. G42A A111U  -5.4
71. C28U C56U C73G U78C C101A  -5.44
72. C49A C70U C82A C104U A105U C123G G135U  -5.46
73. C22G A29C C40A G120C  -5.67
74. A26G A27U A74G C115U C124U  -5.7
75. C15U U78G C86U G113C  -5.8
76. C64G U112G  -6.14
77. A41C C53G C85A A111U U112A U116C  -6.24
78. A6U G23A G69C C115A U126A U131G  -6.34
79. G23C C123A  -6.41
80. A27G U32G C62U U78G G120C  -6.42
81. G23U A24C C31G C72U A83C A90U G93A G107U U109A  -6.51
82. C40G A46C G51U C62U U87G C115G  -6.61
83. A37G G60U C72G C99A A103G C114U U129C  -7.36
84. G23C A29C G48C U106G C114U  -8.24
